Laboratory results: article PMC3943932 (Molecular cell, 2014)
Numbering of substitutions follows the chain as printed. Names may count otherwise. Read-outs that look alike come from different tables or passages of the source. One block for each binder: values may come before it.

What was measured:
Assay in all cases: pull-down
purified GST-PDK1 [1] = target: T1, purified GST-PDK1 (UniProt Q15118 29-436)
purified GST-PDK1 [2] = target: T1, purified GST-PDK1; remark: listed apart in the source
purified GST-PDP1 Y381F = target: T2, purified GST-PDP1 Y381F (UniProt Q9P0J1 72-537, Y381F)
T2 sequence (looked up): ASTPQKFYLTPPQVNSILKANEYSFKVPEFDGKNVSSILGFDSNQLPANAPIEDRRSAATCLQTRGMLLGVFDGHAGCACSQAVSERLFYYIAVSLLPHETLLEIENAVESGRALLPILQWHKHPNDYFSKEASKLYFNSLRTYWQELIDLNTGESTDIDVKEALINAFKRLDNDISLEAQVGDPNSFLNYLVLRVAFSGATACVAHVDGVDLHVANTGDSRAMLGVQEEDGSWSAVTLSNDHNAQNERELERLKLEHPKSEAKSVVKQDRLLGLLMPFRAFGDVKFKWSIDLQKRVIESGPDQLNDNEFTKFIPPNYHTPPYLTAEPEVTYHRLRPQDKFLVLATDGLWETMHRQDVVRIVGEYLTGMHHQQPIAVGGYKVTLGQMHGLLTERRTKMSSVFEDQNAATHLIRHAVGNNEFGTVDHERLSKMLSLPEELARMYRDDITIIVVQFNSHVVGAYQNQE

T1 sequence (Q15118 29-436): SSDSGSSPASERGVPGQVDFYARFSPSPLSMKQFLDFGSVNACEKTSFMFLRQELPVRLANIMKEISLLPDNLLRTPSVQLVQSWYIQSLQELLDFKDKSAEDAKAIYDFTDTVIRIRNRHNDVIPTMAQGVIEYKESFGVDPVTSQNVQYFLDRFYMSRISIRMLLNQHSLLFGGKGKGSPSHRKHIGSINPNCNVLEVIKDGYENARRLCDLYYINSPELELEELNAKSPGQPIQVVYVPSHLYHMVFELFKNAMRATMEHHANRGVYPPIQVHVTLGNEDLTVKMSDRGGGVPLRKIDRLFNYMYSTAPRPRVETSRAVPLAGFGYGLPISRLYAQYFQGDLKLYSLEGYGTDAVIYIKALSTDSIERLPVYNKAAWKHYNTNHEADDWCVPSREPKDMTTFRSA

binding result (purified GST-PDK1 [1]): binds
B1: purified recombinant FLAG-PDHA1 K244R, incubated with NAM+TSA-treated H1299 cell lysates (enzyme, UniProt P08559 30-390, looked up)
chain: FANDATFEIKKCDLHRLEEGPPVTTVLTREDGLKYYRMMQTVRRMELKADQLYKQKIIRGFCHLCDGQEACCVGLEAGINPTDHLITAYRAHGFTFTRGLSVREILAELTGRKGGCAKGKGGSMHMYAKNFYGGNGIVGAQVPLGAGIALACKYNGKDEVCLTLYGDGAANQGQIFEAYNMAALWKLPCIFICENNRYGMGTSVERAAASTDYYRRGDFIPGLRVDGMDILCVREATRFAAAYCRSGKGPILMELQTYRYHGHSMSDPGVSYRTREEIQEVRSKSDPIMLLKDRMVNSNLASVEELKEIDVEVRKEIEDAAQFATADPEPPLEELGYHIYSSDPPFEVRGANQWIKFKSVS
modifications: lysine acetylation by the lysates (K321 is the site that the paper ties to PDK1 binding)

binding result (purified GST-PDK1 [2]): binds
B2: purified recombinant FLAG-PDHA1 K321R (enzyme, UniProt P08559 30-390, looked up)
chain: B1 chain with R215K, K292R

binding result (purified GST-PDP1 Y381F): binds
B3: recombinant FLAG-ACAT1 (enzyme, UniProt P24752 34-427, looked up)
chain: VSKPTLKEVVIVSATRTPIGSFLGSLSLLPATKLGSIAIQGAIEKAGIPKEEVKEAYMGNVLQGGEGQAPTRQAVLGAGLPISTPCTTINKVCASGMKAIMMASQSLMCGHQDVMVAGGMESMSNVPYVMNRGSTPYGGVKLEDLIVKDGLTDVYNKIHMGSCAENTAKKLNIARNEQDAYAINSYTRSKAAWEAGKFGNEVIPVTVTVKGQPDVVVKEDEEYKRVDFSKVPKLKTVFQKENGTVTAANASTLNDGAAALVLMTADAAKRLNVTPLARIVAFADAAVEPIDFPIAPVYAASMVLKDVGLKKEDIAMWEVNEAFSLVVLANIKMLEIDPQKVNINGGAVSLGHPIGMSGARIVGHLTHALKQGEYGLASICNGGGGASAMLIQKL
